Assay results from US20170122944A1.

Key:
[1] = molecular target: recombinant human Factor D (human) (UniProt P00746); test: cell-based or functional assay
[2] = molecular target: Factor D in C1q-depleted human serum (human) (UniProt P00746); test: cell-based or functional assay

“Lampalizumab subjected to oxidation conditions (30 mM AAPH) (Fab)” showed a TR-FRET Activity (Oxidized, 30 mM AAPH) [1] of 63% and a Hemolytic Mean (rabbit erythrocyte lysis assay; Oxidized, 30 mM AAPH) [2] of 82.

For “Lampalizumab subjected to thermal stress (Fab)”, the TR-FRET Activity (Thermal Stress) [1] was 86% and the Hemolytic Mean (rabbit erythrocyte lysis assay; Thermal Stress) [2] was 102.

Lampalizumab (Fab) gave a TR-FRET Activity (Thermal control) [1] of 103%, a TR-FRET Activity (Unstressed control) [1] of 93% and a Hemolytic Mean (rabbit erythrocyte lysis assay; Thermal control) [2] of 96. It also gave a Hemolytic Mean (rabbit erythrocyte lysis assay; Unstressed control) [2] of 81.
